# Target: recombinant VEGF (UniProt P15692)
# Assay: cell-based or functional assay
# Chain of recombinant VEGF (P15692 other isoform, or with tags, fused parts or gaps limits assumed): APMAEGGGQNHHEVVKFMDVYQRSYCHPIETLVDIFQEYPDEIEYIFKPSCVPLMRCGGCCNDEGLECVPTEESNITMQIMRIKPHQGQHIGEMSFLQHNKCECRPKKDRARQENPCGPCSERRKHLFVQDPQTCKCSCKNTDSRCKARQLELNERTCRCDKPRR
substance,measurement,value
"soluble Fms-related tyrosine kinase-1 (sFLT-1) protein, human, secreted by rAAV.sFlt-1-transduced 293 cells (from UniProt P17948 27-450)","inhibition of VEGF-induced proliferation of HUVECs (MTT assay), 40 µL conditioned medium from rAAV.sFlt-1-transduced 293 cells",32%
